Experimental data as given in patent publication US20250276075A1, “METHODS OF TREATING AXL-EXPRESSING CANCERS WITH ANTI-AXL ANTIBODIES, ANTIBODY FRAGMENTS AND THEIR IMMUNOCONJUGATES” (BIOATLA, INC., priority 2020, published 2025).

T1: Axl (Homo sapiens, UniProt P30530)
T1 sequence (P30530 26-451 limits assumed): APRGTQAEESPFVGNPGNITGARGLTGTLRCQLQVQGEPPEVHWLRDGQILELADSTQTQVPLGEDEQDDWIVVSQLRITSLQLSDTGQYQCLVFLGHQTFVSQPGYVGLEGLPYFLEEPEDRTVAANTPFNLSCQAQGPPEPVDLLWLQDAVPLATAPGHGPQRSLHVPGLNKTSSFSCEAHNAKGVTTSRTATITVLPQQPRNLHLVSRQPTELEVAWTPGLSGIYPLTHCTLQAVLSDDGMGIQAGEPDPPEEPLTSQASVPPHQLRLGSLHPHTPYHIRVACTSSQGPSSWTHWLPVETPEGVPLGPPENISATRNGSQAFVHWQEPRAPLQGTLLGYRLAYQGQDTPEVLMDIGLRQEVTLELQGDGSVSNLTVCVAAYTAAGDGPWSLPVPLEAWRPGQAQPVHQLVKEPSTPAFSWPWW


Key:
[1] = target: T1, Axl; assay: Affinity ELISA of CPE mutant antibodies for binding to Axl at pH 6.0 over pH 7.4; settings: heavy chain variable region mutants; for Affinity ELISA CPE mutant ratio (1:3, pH 6.0/7.4): 1:3 dilution; for Affinity ELISA CPE mutant ratio (1:9, pH 6.0/7.4): 1:9 dilution
Procedure, shortened: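 Single-point mutant anti-Axl antibody library (CPE) screened by ELISA for binding at pH 6.0 versus pH 7.4, at 1:3 and 1:9 antibody dilutions, in serum with FLAG-tag detection and carbonate (Krebs-Ringer) buffer. Selection criterion: pH 6.0/pH 7.4 binding ratio ≥1.5 at either dilution.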

[2] = target: Axl (UniProt P30530); assay: ELISA, 1:3 dilution
[3] = target: Axl (UniProt P30530); assay: ELISA, 1:9 dilution
[4] = system: A549 cells; assay: Conditional cell killing by CAB-Axl-ADC (model toxin) at pH 6.0 and 7.4; assay type: cell-based; settings: FIG. 11
Description: The anti-Axl antibody of the present invention was conjugated to a model toxin (e.g., gemcitabine) to produce a conditionally active antibody-drug conjugate (CAB-Axl-ADC). The CAB-Axl-ADC was first tested to confirm that the conditional cell killing activity was not altered by the drug conjugation process.

[5] = system: MiaPaCa2 xenograft tumors; assay: MiaPaCa2 xenograft tumor study in mice; assay type: in vivo; settings: 1 mg/kg twice weekly for 3 weeks; in comparison with the controls
Experimental: The CAB-Axl-ADC was then injected into mice bearing MiaPaCa2 xenograft tumors at a dose of 1 mg/kg twice weekly for 3 weeks. Several controls were used in this study, including naked CAB (anti-Axl antibody with no conjugation), vehicle, the toxin alone (unconjugated gemcitable), control ADC, an affinity matching anti-Axl ADC (AM ADC).

Molecule | Affinity ELISA CPE mutant ratio (1:3, pH 6.0/7.4) [1] | Affinity ELISA CPE mutant ratio (1:9, pH 6.0/7.4) [1] | Affinity ELISA CPE mutant ratio (1:3, pH 6.0/7.4) [2] | Affinity ELISA CPE mutant ratio (1:9, pH 6.0/7.4) [3] | cell killing at pH 6.0 versus pH 7.4 [4] | reduction in the size of the tumor [5]
HC-W110D (antibody, V domains shown) VH: EVQLVQSGAEVKKPGATVKISCKVSGYSFTGHTMNWIRQPPGKGLEWIGLIKPSNGGTSYNQKFKGRVTISADKSISTAYLQWSSLKASDTAMYYCAHGHYESYFAMDYDGQGTLVTVSS VL: DIQMTQSPSSLSASVGDRVTITCKASQDVSSAVAWYQQKPGQAPRLLIYWASTRHTGVPSRFSGSGSGTEFTLTISSLQPDDFATYYCQEHFSTPLTFGQGTKVEIK | 3.716 | 1.112 | 3.72 | 1.11 | – | –
HC-M107F (antibody, V domains shown) VH: EVQLVQSGAEVKKPGATVKISCKVSGYSFTGHTMNWIRQPPGKGLEWIGLIKPSNGGTSYNQKFKGRVTISADKSISTAYLQWSSLKASDTAMYYCAHGHYESYFAFDYWGQGTLVTVSS VL: DIQMTQSPSSLSASVGDRVTITCKASQDVSSAVAWYQQKPGQAPRLLIYWASTRHTGVPSRFSGSGSGTEFTLTISSLQPDDFATYYCQEHFSTPLTFGQGTKVEIK | 20.579 | 1.090 | 20.6 | 1.09 | – | –
HC-G111H (antibody, V domains shown) VH: EVQLVQSGAEVKKPGATVKISCKVSGYSFTGHTMNWIRQPPGKGLEWIGLIKPSNGGTSYNQKFKGRVTISADKSISTAYLQWSSLKASDTAMYYCAHGHYESYFAMDYWHQGTLVTVSS VL: DIQMTQSPSSLSASVGDRVTITCKASQDVSSAVAWYQQKPGQAPRLLIYWASTRHTGVPSRFSGSGSGTEFTLTISSLQPDDFATYYCQEHFSTPLTFGQGTKVEIK | 1.058 | 1.786 | 1.06 | 1.79 | – | –
CAB-Axl-ADC: anti-Axl antibody conjugated to a model toxin (e.g., gemcitabine), conditionally active antibody-drug conjugate (conjugate) VH: EVQLVQSGAEVKKPGATVKISCKVSGYSFWGATMNWIRQPPGKGLEWIGLIKPSNGGTSYNQKFKGRVTISADKSISTAYLQWSSLKASDTAMYYCAHGHYESYEAMDYWGQGTLVTVSS VL: DIQMTQSPSSLSASVGDRVTITCKASQDVVSAVAWYQQKPGQAPRLLIYWQDTRHTGVPSRFSGSGSGTEFTLTISSLQPDDFATYYCQEHFSPPLTFGQGTKVEIK | – | – | – | – | killed significantly more cells at pH 6.0 than at pH 7.4 | significantly greater reduction in the size of the tumor
HC-W110A (antibody, V domains shown) VH: EVQLVQSGAEVKKPGATVKISCKVSGYSFTGHTMNWIRQPPGKGLEWIGLIKPSNGGTSYNQKFKGRVTISADKSISTAYLQWSSLKASDTAMYYCAHGHYESYFAMDYAGQGTLVTVSS VL: DIQMTQSPSSLSASVGDRVTITCKASQDVSSAVAWYQQKPGQAPRLLIYWASTRHTGVPSRFSGSGSGTEFTLTISSLQPDDFATYYCQEHFSTPLTFGQGTKVEIK | 7.909 | 1.198 | 7.91 | 1.2 | – | –
HC-W110P (antibody, V domains shown) VH: EVQLVQSGAEVKKPGATVKISCKVSGYSFTGHTMNWIRQPPGKGLEWIGLIKPSNGGTSYNQKFKGRVTISADKSISTAYLQWSSLKASDTAMYYCAHGHYESYFAMDYPGQGTLVTVSS VL: DIQMTQSPSSLSASVGDRVTITCKASQDVSSAVAWYQQKPGQAPRLLIYWASTRHTGVPSRFSGSGSGTEFTLTISSLQPDDFATYYCQEHFSTPLTFGQGTKVEIK | 6.490 | 2.148 | 6.49 | 2.15 | – | –
